From paper PMC12207370, “Macrocyclic Peptide Probes for Immunomodulatory Protein CD59: Potent Modulators of Bacterial Toxin Activity and Antibody‐Dependent Cytotoxicity” (Angewandte Chemie (International Ed. in English), 2025)
Peptide text beside a SMILES is read from it.

What was measured:
CD59 = target: T1, CD59 (Homo sapiens, UniProt P13987); experiment: SPR (Biacore S200) binding to immobilised biotinylated CD59; details: SPR, immobilized CD59, average of three technical replicates ± SEM; read-out: KD (nM) ± SEM
T1 construct: Recombinant soluble human CD59 with an additional C-terminal cysteine residue
T1 sequence (P13987 26-102 limits assumed): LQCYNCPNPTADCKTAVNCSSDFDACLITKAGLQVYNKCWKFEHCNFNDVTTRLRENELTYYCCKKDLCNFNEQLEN
Excerpt: To identify which of these peptides bound CD59 most tightly, we used a Biacore S200 surface plasmon resonance (SPR) platform to investigate CD59 affinity (Figure 2b), using a known protein binding partner of CD59 (rILYd4) as a benchmark. Four 13‐mer macrocyclic peptides and one 14‐mer macrocyclic peptide were identified with a dissociation constant (K D) lower than that of rILYd4. Considering their fourfold lower molecular weight, these peptides bind with up to 19‐fold greater efficiency compared to rILYd4 (Figure 2b).
Equipment: SPR analysis was performed on a Cytiva Biacore S200. All buffers were prepared using ultra-pure water from a Millipore Elix Q-Gard purification system. Solutions and buffers were filtered with a 0.22 μm filter and degassed prior to use. The assays were performed on Series S streptavidin (SA) sensor chip (Cytiva). PBS-P+ buffer 10X (0.2 M phosphate buffer with 27 mM KCl, 1.37 M NaCl and 0.5% Surfactant P20 (Tween 20)) was used for the preparation of the assay running buffer (PBS-P+ 1X).
Immobilisation of CD59-biotin: Biotinylated CD59 was immobilised on the surface of a SA chip by non-covalent capture (biotin streptavidin interaction) as per the manufacturer’s instructions. The system was initially primed with running buffer and normalised using BIAnormalizing solution (70% (w/w) glycerol) (Cytiva). Before immobilising the protein, the surface was conditioned with three consecutive one-minute injections of 1 M NaCl in 50 mM NaOH. Biotinylated CD59 (0.5 µg/mL in running buffer) was flowed over the protein (active) channel for different contact times to achieve different immobilisation levels (600–1200 RU). After each protein injection, the needle and injection loop were washed using 50% isopropanol in 1 M NaCl and 50 mM NaOH. A reference channel was prepared by similar treatment; however, running buffer alone rather than CD59-biotin in running buffer was flowed over the chip the same way.
Interaction analysis: Multicycle kinetic and affinity approach was used for the analysis of peptides interactions with CD59. Two-fold serial dilutions of each peptide were prepared in running buffer and were flowed over both the ligand and reference channel using a flow rate (30 μL/min) at 25 °C. A zero concentration was added to each analyte series and three cycles of buffer were run between analytes to restore the baseline. The obtained sensorgrams were analysed using the embedded Biacore S200 Evaluation software. The data were normalised by subtracting RU values of the reference channel and zero concentration of the analyte series. Kinetic rate constants (kon and koff) were determined by fitting the normalised data using the built-in Kinetic analysis model (non-linear regression with a 1:1 Langmuir binding model), KD values were then calculated from the two rate constants ([…]). The KD values were determined again by fitting the normalised data using the built-in Affinity analysis model (1:1 Langmuir binding model).

biotinylated CD59 = target: T2, biotinylated CD59 (Homo sapiens, UniProt P13987); experiment: mRNA-display cyclic peptide screen against CD59-biotin, NGS abundance after 6th selection round; details: for Percentage Seq I: counts normalised by total counts of sample Seq I; for Percentage Seq I / Percentage Seq II: percentage of the pool; for Percentage Seq I / Percentage Seq II / Percentage Average / Percentage of the pool, averaged across the two sequencing samples / Percentage of the pool, Seq I / Percentage of the pool, Seq II: sheet R6; for Percentage Seq II: counts normalised by total counts of sample Seq II; for Percentage Average: percentage of the pool averaged across the two sequencing samples; for Counts Seq I / Counts Seq II: raw NGS counts of peptide sequence; for Counts Seq I: sequencing sample Seq I; for Counts Seq I / Counts Seq II / Counts (raw counts for peptide sequence), Seq I / Counts (raw counts for peptide sequence), Seq II: sheet R6 (6th selection round); for Counts Seq II: sequencing sample Seq II; for Counts (raw counts for peptide sequence), Seq I: NGS sample Seq I; for Counts (raw counts for peptide sequence), Seq II: NGS sample Seq II; for Percentage of the pool, averaged across the two sequencing samples: average of Seq I and Seq II; for Percentage of the pool, Seq I: counts normalised by total counts of NGS sample Seq I; for Percentage of the pool, Seq II: counts normalised by total counts of NGS sample Seq II
T2 construct: Recombinant soluble human CD59 with an additional C-terminal cysteine residue
T2 sequence (P13987 26-102 limits assumed): T1 sequence (P13987 26-102 limits assumed)
How it was run: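 Peptide–mRNA fusions were made by in vitro translation with a customised PURE express kit. The kit lacked release factor 1 and methionine and was supplemented with […] initiator tRNA carrying N-chloroacetyl-d-tyrosine. Thioether macrocycles were formed, then enriched and amplified over iterative rounds on CD59-biotin immobilised on streptavidin beads. NGS read counts per sequence were recorded after the 6th selection round.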

Row | Compound | Kd (CD59) | Percentage Seq I (biotinylated CD59) | Percentage Seq II (biotinylated CD59) | Percentage Average (biotinylated CD59) | Counts Seq I (biotinylated CD59) | Counts Seq II (biotinylated CD59) | Counts (raw counts for peptide sequence), Seq I (biotinylated CD59) | Counts (raw counts for peptide sequence), Seq II (biotinylated CD59) | Percentage of the pool, averaged across the two sequencing samples (biotinylated CD59) | Percentage of the pool, Seq I (biotinylated CD59) | Percentage of the pool, Seq II (biotinylated CD59)
1 | CC(C)[C@@H]1NC(=O)[C@H](Cc2ccccc2)NC(=O)[C@@H](Cc2ccc(O)cc2)NC(=O)CSC[C@@H](C(N)=O)NC(=O)CNC(=O)[C@H](CCCNC(=N)N)NC(=O)[C@H]([C@@H](C)O)NC(=O)[C@H](Cc2c[nH]cn2)NC(=O)[C@H](CC(=O)O)NC(=O)[C@H](CCCNC(=N)N)NC(=O)[C@H](CC(N)=O)NC(=O)CNC(=O)[C@H]([C@@H](C)O)NC1=O [CP-02] (HELM PEPTIDE1{[O=C(C[*:3])[*:2]].[dY].F.V.T.G.N.R.D.H.T.R.G.C.[am]}$PEPTIDE1,PEPTIDE1,1:R3-14:R3$$$V2.0) | 15.3 ± 0.2 nM | – | – | – | – | – | – | – | – | – | –
2 | CC[C@H](C)[C@@H]1NC(=O)[C@H](CCC(N)=O)NC(=O)[C@H](CCCNC(=N)N)NC(=O)[C@H](CC(N)=O)NC(=O)CNC(=O)[C@H](Cc2c[nH]c3ccccc23)NC(=O)[C@H](C)NC(=O)[C@H](CO)NC(=O)[C@@H](Cc2ccc(O)cc2)NC(=O)CSC[C@@H](C(N)=O)NC(=O)[C@H](Cc2ccc(O)cc2)NC(=O)[C@H](Cc2ccc(O)cc2)NC(=O)[C@H](CCC(N)=O)NC1=O [CP-03] (HELM PEPTIDE1{[O=C(C[*:3])[*:2]].[dY].S.A.W.G.N.R.Q.I.Q.Y.Y.C.[am]}$PEPTIDE1,PEPTIDE1,1:R3-14:R3$$$V2.0) | 23.4 ± 0.7 nM | – | – | – | – | – | – | – | – | – | –
3 | WSTRTFTCRTLL | – | 0.395% | 0.446% | 0.420% | 1728 | 192 | – | – | – | – | –
4 | WTCHLRHDGPHA | – | 1.997% | 2.114% | 2.056% | 8737 | 911 | – | – | – | – | –
5 | WTRGSKDYARG | – | – | – | – | – | – | 49 | 5 | 0.011% | 0.011% | 0.012%
6 | WTRGSKDYTRG | – | 0.168% | 0.167% | 0.168% | 737 | 72 | – | – | – | – | –
7 | WVYGSRYWRSI | – | 0.030% | 0.014% | 0.022% | 132 | 6 | – | – | – | – | –
8 | WVYGSSTFRYQ | – | 0.030% | 0.030% | 0.030% | 133 | 13 | – | – | – | – | –
9 | YAFGSRDITYY | – | 0.018% | 0.023% | 0.021% | 78 | 10 | – | – | – | – | –
10 | YAQGDKLTARG | – | 0.028% | 0.026% | 0.027% | 124 | 11 | – | – | – | – | –
11 | YARGDASHTIW | – | 0.043% | 0.056% | 0.049% | 186 | 24 | – | – | – | – | –
12 | YARGNNASQFF | – | 0.089% | 0.088% | 0.089% | 391 | 38 | – | – | – | – | –
13 | YAWGNRNNAYY | – | 0.060% | 0.049% | 0.054% | 263 | 21 | – | – | – | – | –
14 | YCWVRGSRNYT | – | 0.064% | 0.060% | 0.062% | 279 | 26 | – | – | – | – | –
15 | YGASPTSLCSGI | – | 0.166% | 0.186% | 0.176% | 727 | 80 | – | – | – | – | –
16 | YIIGSSDYTRG | – | 0.033% | 0.039% | 0.036% | 146 | 17 | – | – | – | – | –

Row | Compound | Kd (CD59) | Percentage Seq I (biotinylated CD59) | Percentage Seq II (biotinylated CD59) | Percentage Average (biotinylated CD59) | Counts Seq I (biotinylated CD59) | Counts Seq II (biotinylated CD59) | Counts (raw counts for peptide sequence), Seq I (biotinylated CD59) | Counts (raw counts for peptide sequence), Seq II (biotinylated CD59) | Percentage of the pool, averaged across the two sequencing samples (biotinylated CD59) | Percentage of the pool, Seq I (biotinylated CD59) | Percentage of the pool, Seq II (biotinylated CD59)
17 | YIRGTQDTFLF | – | – | – | – | – | – | 46 | 7 | 0.013% | 0.011% | 0.016%
18 | YIVGSSDYTRG | – | 0.417% | 0.388% | 0.402% | 1825 | 167 | – | – | – | – | –
19 | YIYWSFTSARG | – | 0.050% | 0.032% | 0.041% | 219 | 14 | – | – | – | – | –
20 | YLFGDRFSVRG | – | 0.094% | 0.100% | 0.097% | 412 | 43 | – | – | – | – | –
21 | YLSGSSNFARG | – | – | – | – | – | – | 48 | 7 | 0.014% | 0.011% | 0.016%
22 | YLSGSSNFTRG | – | 0.042% | 0.044% | 0.043% | 184 | 19 | – | – | – | – | –
23 | YSCPDWVRGSRT | – | – | – | – | – | – | 36 | 6 | 0.011% | 0.008% | 0.014%
24 | YSSGSRHWTRS | – | – | – | – | – | – | 57 | 7 | 0.015% | 0.013% | 0.016%
25 | YVFGNRSFARG | – | – | – | – | – | – | 32 | 7 | 0.012% | 0.007% | 0.016%
26 | YVFGNRSFTRG | – | 0.504% | 0.524% | 0.514% | 2205 | 226 | – | – | – | – | –
27 | YVFWSRTHTYG | – | 0.172% | 0.165% | 0.168% | 751 | 71 | – | – | – | – | –
28 | YVRGDAWTVLG | – | 0.027% | 0.019% | 0.023% | 117 | 8 | – | – | – | – | –
29 | YVRGDLYSVLG | – | – | – | – | – | – | 40 | 5 | 0.010% | 0.009% | 0.012%
30 | YVTGNRDHTRG | – | – | – | – | – | – | 66 | 8 | 0.017% | 0.015% | 0.019%
31 | YVYGSRDRC | – | – | – | – | – | – | 74 | 5 | 0.014% | 0.017% | 0.012%
32 | YVYGSRDRCWG | – | 0.445% | 0.441% | 0.443% | 1946 | 190 | – | – | – | – | –
